{"source": "paper PMC8144572", "about": "“Molecular model of a sensor of two-component signaling system” (Scientific Reports, 2021)", "proteins": {"B1": {"name": "full-length transducer NpHtrII from Natronomonas pharaonis (natural protein)", "chain": "not shown", "notes": "Sensory rhodopsin II transducer (NpHtrII), Natronomonas pharaonis, UniProt P42259; gene optimised for expression in E. coli; also called cognate transducer; source: E. coli BL21-AI (SAXS) or BL21(DE3) (SANS), co-expressed with NpSRII, solubilised in DDM, purified (Ni-NTA, SEC); not shown: 6xHis-tag (with ENS-linker), C-terminal, kept"}, "B2": {"name": "full-length NpSRII/NpHtrII complex (complex)", "chain 1": "MVGLTTLFWLGAIGMLVGTLAFAWAGRDAGSGERRYYVTLVGISGIAAVAYVVMALGVGWVPVAERTVFAPRYIDWILTTPLIVYFLGLLAGLDSREFGIVITLNTVVMLAGFAGAMVPGIERYALFGMGAVAFLGLVYYLVGPMTESASQRSSGIKSLYVRLRNLTVILWAIYPFIWLLGPPGVALLTPTVDVALIVYLDLVTKVGFGFIALDAAATLRAEHGESLAGVDTDAPAVAD", "chain 2": "not shown", "notes": "Sensory rhodopsin II (NpSRII), Natronomonas pharaonis, UniProt P42196; no limits stated; as m1; Sensory rhodopsin II transducer (NpHtrII), Natronomonas pharaonis, UniProt P42259; as m2; also called sensory rhodopsin II/transducer complex; full-length phototaxis complex; source: E. coli BL21-AI (SAXS) or BL21(DE3) (SANS), co-expressed, solubilised in DDM, purified (Ni-NTA, SEC); not shown: …"}}, "key": {"[1]": {"biological_target": "the molecule itself", "assay": "SANS; full-length complex 0.40 mg/ml in D2O buffer, 4.0 M NaCl, 100 mM Na/Na-Pi pD 8.0, 1 mM EDTA, 0.05% DDM; OLIGOMER fit to a mixture of dimers and trimers of dimers (trimer of dimers = six NpSRII/NpHtrII units)"}, "[2]": {"biological_target": "the molecule itself", "assay": "SAXS; detergent-solubilised (DDM) complex, peak fractions after gel filtration; low salt (150 mM NaCl); 0.57 mg/ml full-length and 0.78 mg/ml truncated complex; BM29 (ESRF); curves fitted with atomistic dimer models with a detergent belt (MEMPROT, CRYSOL3)"}}}
{"protein": "B1", "values": [{"measurement": "binding result", "setting": "[1]", "value": "binds"}]}
{"protein": "B2", "values": [{"measurement": "stoichiometry N", "setting": "[1]", "value": 6}, {"measurement": "stoichiometry N", "setting": "[2]", "value": 2}]}
